Measurements taken from patent US11357847B2, “Modified HSV gD protein and vaccine containing same” (KM Biologics Co., Ltd., priority 2017, dated 2022).
Residue numbers refer to the chain shown, from its start. Numbers in names are those of the source.

B1: gD1-275v3: gD1-275 with glycochain at P50 (SC-F) (protein)
chain: KYALADPSLKMADPNRFRGKNLPVLDQLTDPPGVKRVYHIQPSLEDPFQNASIPITVYYAVLERACRSVLLHAPSEAPQIVRGASDEARKHTYNLTIAWYRMGDNCAIPITVMEYTECPYNKSLGVCPIRTQPRWSYYDSFSAVSEDNLGFLMHAPAFETAGTYLRLVKINDWTEITQFILEHRARASCKYALPLRIPPAACLTSKAYQQGVTVDSIGMLPRFIPENQRTVALYSLKIAGWHGPKPPYTSTLLPPELSDTTNATQPELVPEDPEDHHHHHH
B2: gD1-275v5: gD1-275 with glycochains at R186 (SC-A) and P50 (SC-F) (protein)
chain: B1 chain with R186N
B3: gD1-275v3-55: gD1-275 with glycochain at SC-F, linked to T cell epitope peptide DP5 (protein)
chain: KYALADPSLKMADPNRFRGKNLPVLDQLTDPPGVKRVYHIQPSLEDPFQNASIPITVYYAVLERACRSVLLHAPSEAPQIVRGASDEARKHTYNLTIAWYRMGDNCAIPITVMEYTECPYNKSLGVCPIRTQPRWSYYDSFSAVSEDNLGFLMHAPAFETAGTYLRLVKINDWTEITQFILEHRARASCKYALPLRIPPAACLTSKAYQQGVTVDSIGMLPRFIPENQRTVALYSLKIAGWHGPKPPYTSTLLPPELSDTTNATQPELVPEDPEDGPGPGIAFWVRRRAQMAPKPLRIAFWVRRRAQMAPKPLRHHHHHH
modifications: left off: small tags and cut ends
B4: gD1-275v5-55: gD1-275 with glycochains at SC-A, SC-F, linked to T cell epitope peptide DP5 (protein)
chain: B3 chain with R186N
modifications: left off: small tags and cut ends
B5: gD1-315v3V: gD1-315 with glycochain at SC-F and V231W (protein)
chain: KYALADPSLKMADPNRFRGKNLPVLDQLTDPPGVKRVYHIQPSLEDPFQNASIPITVYYAVLERACRSVLLHAPSEAPQIVRGASDEARKHTYNLTIAWYRMGDNCAIPITVMEYTECPYNKSLGVCPIRTQPRWSYYDSFSAVSEDNLGFLMHAPAFETAGTYLRLVKINDWTEITQFILEHRARASCKYALPLRIPPAACLTSKAYQQGVTVDSIGMLPRFIPENQRTWALYSLKIAGWHGPKPPYTSTLLPPELSDTTNATQPELVPEDPEDSALLEDPAGTVSSQIPPNWHIPSIQDVAPHHAPAAPSNPGHHHHHH
B6: gD1-275 (protein)
chain: KYALADPSLKMADPNRFRGKNLPVLDQLTDPPGVKRVYHIQPSLEDPFQPPSIPITVYYAVLERACRSVLLHAPSEAPQIVRGASDEARKHTYNLTIAWYRMGDNCAIPITVMEYTECPYNKSLGVCPIRTQPRWSYYDSFSAVSEDNLGFLMHAPAFETAGTYLRLVKINDWTEITQFILEHRARASCKYALPLRIPPAACLTSKAYQQGVTVDSIGMLPRFIPENQRTVALYSLKIAGWHGPKPPYTSTLLPPELSDTTNATQPELVPEDPED

What was measured:
[1] = system: various anti-gD2 antibodies; experiment: Reactivity of gD variants with anti-gD2 antibodies (competitive ELISA); type: binding, human; details: for Reactivity with anti-gD2 antibody 1 / Reactivity with anti-gD2 antibody 5 / Reactivity with anti-gD2 antibody 13 / Reactivity with anti-gD2 antibody 72 / Reactivity with anti-gD2 antibody 75 / Reactivity with anti-gD2 antibody 78 / Reactivity with anti-gD2 antibody 82: immobilized gD variant
Source text: Each anti-gD2 monoclonal antibody and each gD variant were expressed using an Expi293 expression system.

[2] = Properties of produced gD variants (aggregates); type: physicochemical; details: expressed and purified variant
Source text: Four gD1-275-based variants were produced. Since these were FR3-deficient variants, V231W mutations affecting FR3 were not investigated. […] Meanwhile, eight gD1-315-based variants were produced, and none of the variants were less than the original gD1-315 in both properties and expression level.

HSV-2 MS strain = experiment: Mouse infection-prevention test of modified gD (genital herpes infection model); type: in vivo, BALB/c mice; set-up: key to Determination (vs gD1-315) / Determination# (vs gD1-315): ++: minimum effective dose based on the Significant difference test in three-fold common ratio relative to gD1-315(WT) of two or more doses stronger; +: those of one dose stronger; ±: those of an equivalent value
Description: Immunogenicity test of the modified gD antigen was performed using the wild-type gD antigen gD1-315 (WT) as a positive control and saline as a negative control. A predetermined amount of antigen was dissolved in saline for injection (saline) with MPLA (10 μg/mouse) and CpG (1 μg/mouse) and immunized to mice at a volume of 200 μL/mouse. BALB/c mice (5 weeks old, female) were used for the study and immunized subcutaneously in back at 2-week intervals for a total of 3 times (N=4 cases per group). Two weeks after the final immunization (third dose), blood was collected and serum was prepared for each individual. The prepared serum was serially diluted and assessed for neutralizing antibody-inducing activity against HSV-2 (50% plaque number-reducing activity).
An infection-prevention test in the preventive administration of modified gD antigen was performed using a mouse genital herpes infection model. Similar to the mouse immunogenicity test described above, mice were immunized with the number of N=10 cases per group. Depo-Provera was inoculated subcutaneously at 2 mg/mouse 6 days prior to viral inoculation to improve the multiplicity of infection upon viral inoculation 2 weeks after final immunization (third dose). 5×10^5 PFU/20 μL HSV-2 MS strain was inoculated transvaginally under anesthesia and observed for 21 days. Infection prevention ability was evaluated using survival time (survival rate) as index.
The infection model of the mouse genital herpes infection model was used to evaluate infection prevention ability of various modified gD in preventive administration. The number of animal cases in each group was set to n=10, and wild-type gD (gD1-315) was used as a positive control and saline was used as a negative control. The experiments were performed a total of four times (experiments 1-4) and four doses of 0.1 μg/mouse/time, 0.03 μg/mouse/time, 0.01 μg/mouse/time and 0.003 μg/mouse/time were set for all of the positive control, negative control, and subject modified gD antigen. Depo-Provera was inoculated subcutaneously at 2 mg/mouse 6 days prior to viral inoculation to improve the multiplicity of infection upon viral inoculation 2 weeks after final immunization (third dose). 5×10^5 PFU/20 HSV-2 MS strain was inoculated transvaginally under anesthesia and observed for 21 days. Infection prevention ability was evaluated using survival time (survival rate) as index. Mean values of those were plotted in the graph. A Significant difference test for the negative control group was performed by the Kaplan-Meier method, and those with a minimum effective dose based on the Significant difference test in three-fold common ratio relative to wild type gD of two or more doses stronger were determined to be “++”, those of one dose stronger were determined to be “+”, and those of an equivalent value were determined to be “±”.

[3] = Experiment 4, 0.003 μg/head/time
[4] = Experiment 4, 0.01 μg/head/time
[5] = Experiment 4, 0.03 μg/head/time
[6] = Experiment 4, minimum effective dose relative to gD1-315(WT)
[7] = Experiment 1, 0.003 μg/head/time
[8] = Experiment 1, 0.01 μg/head/time
[9] = Experiment 1, 0.03 μg/head/time
[10] = Experiment 3, 0.01 μg/head/time
[11] = Experiment 3, 0.03 μg/head/time
[12] = Experiment 3, fourth dose line, 0.03 μg/head/time

Molecule	Reactivity with anti-gD2 antibody 1 [1]	Reactivity with anti-gD2 antibody 5 [1]	Reactivity with anti-gD2 antibody 13 [1]	Reactivity with anti-gD2 antibody 72 [1]	Reactivity with anti-gD2 antibody 75 [1]	Reactivity with anti-gD2 antibody 78 [1]	Reactivity with anti-gD2 antibody 82 [1]	Properties of the variant (aggregates) [2]	Mean survival time (HSV-2 MS strain; [3])	Significant difference test (vs saline) (HSV-2 MS strain; [3])	Mean survival time (HSV-2 MS strain; [4])	Significant difference test (vs saline) (HSV-2 MS strain; [4])	Mean survival time (HSV-2 MS strain; [5])	Significant difference test (vs saline) (HSV-2 MS strain; [5])	Mean survival time (HSV-2 MS strain; Experiment 4, 0.1 μg/head/time)	Significant difference test (vs saline) (HSV-2 MS strain; Experiment 4, 0.1 μg/head/time)	Determination# (vs gD1-315) (HSV-2 MS strain; [6])	further results
B1	− ((−): less than 30%)	− ((−): less than 30%)	− ((−): less than 30%)	− ((−): less than 30%)	− ((−): less than 30%)	− ((−): less than 30%)	+ ((+): 70% or more)	no change in properties	–	–	–	–	–	–	–	–	–	–
B2	− ((−): less than 30%)	− ((−): less than 30%)	− ((−): less than 30%)	+ ((+): 70% or more)	− ((−): less than 30%)	− ((−): less than 30%)	+ ((+): 70% or more)	no change in properties	–	–	–	–	–	–	–	–	–	Relative reactivity with antibody No. 82 (gD1-315 wild-type set to 1) ([1]; FIG. 13): substantially similar reactivity
B3	− ((−): less than 30%)	− ((−): less than 30%)	− ((−): less than 30%)	− ((−): less than 30%)	− ((−): less than 30%)	− ((−): less than 30%)	+ ((+): 70% or more)	presence of aggregates was confirmed	7 days	N.S.	7.5 days	N.S.	>21 days	** (** 0.001 = < p < 0.01)	>21 days	** (** 0.001 = < p < 0.01)	+	–
B4	− ((−): less than 30%)	− ((−): less than 30%)	− ((−): less than 30%)	− ((−): less than 30%)	− ((−): less than 30%)	− ((−): less than 30%)	+ ((+): 70% or more)	well properties	8 days	N.S.	15.5 days	N.S.	>21 days	** (** 0.001 = < p < 0.01)	>21 days	*** (*** p < 0.001)	+	Mean survival time (HSV-2 MS strain; [7]): 13 days; Significant difference test (vs saline) (HSV-2 MS strain; [7]): *** (*** p < 0.001); Mean survival time (HSV-2 MS strain; [8]): 11 days; Significant difference test (vs saline) (HSV-2 MS strain; [8]): *** (*** p < 0.001); Mean survival time (HSV-2 MS strain; [9]): >21 days; Significant difference test (vs saline) (HSV-2 MS strain; [9]): *** (*** p < 0.001); Mean survival time (HSV-2 MS strain; Experiment 1, 0.1 μg/head/time): >21 days; Significant difference test (vs saline) (HSV-2 MS strain; Experiment 1, 0.1 μg/head/time): *** (*** p < 0.001); Determination (vs gD1-315) (HSV-2 MS strain; Experiment 1, minimum effective dose relative to gD1-315(WT)): ++
B5	+ ((+): 70% or more)	− ((−): less than 30%)	+ ((+): 70% or more)	− ((−): less than 30%)	− ((−): less than 30%)	− ((−): less than 30%)	+ ((+): 70% or more)	–	–	–	–	–	–	–	–	–	–	Mean survival time (HSV-2 MS strain; [10]): 7 days; Significant difference test (vs saline) (HSV-2 MS strain; [10]): * (* 0.01 = < p < 0.05); Mean survival time (HSV-2 MS strain; [11]): >21 days; Significant difference test (vs saline) (HSV-2 MS strain; [11]): *** (*** p < 0.001); Mean survival time (HSV-2 MS strain; Experiment 3, 0.1 μg/head/time): >21 days; Significant difference test (vs saline) (HSV-2 MS strain; Experiment 3, 0.1 μg/head/time): *** (*** p < 0.001); Mean survival time (HSV-2 MS strain; [12]): 6 days; Significant difference test (vs saline) (HSV-2 MS strain; [12]): N.S.; Determination# (vs gD1-315) (HSV-2 MS strain; Experiment 3, minimum effective dose relative to gD1-315(WT)): ±
B6	− ((−): less than 30%)	+ ((+): 70% or more)	+ ((+): 70% or more)	+ ((+): 70% or more)	+ ((+): 70% or more)	+ ((+): 70% or more)	+ ((+): 70% or more)	Aggregation	–	–	–	–	–	–	–	–	–	–
